assay: yeast display, Sf9 membrane polyspecificity reagent, FACS + sequencing; frameworks hold sequencing errors
Method in brief: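 Nanobodies came from a synthetic yeast display library in Saccharomyces cerevisiae BJ5465, induced with galactose for 36–48 hours and stained for 1 hour at 4 °C with 10% biotinylated, detergent-solubilized Sf9 membrane reagent. Cells were enriched on streptavidin microbeads and then FACS-sorted, with low and high (top ~1%) gates set on anti-HA fluorescence for expression and streptavidin fluorescence for reagent binding. Each polyreactivity label reflects the gate a clone came from. Genes were amplified by colony PCR, sequenced by MiSeq 2 × 250 and filtered by CDR length.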

Sequence	polyreactivity (PSR sort gate)
QVQLVESGGGLVQAGGSLRLSCAASGSTFYQYSMGLYRQAHVKEREFVAAITTIGGLTFYADSVKGRFTISRDNAKNTVYLQMHSLKPEDTAVYYCAAGYRAWDPYGHYGYWGQGTQVTVSS	high polyreactivity
QVQLVESGVGLVQAGASLRLSCAASGFIFRKNAMGWYRQAPGKERELVAAISGSGGRTYYADSVKGRFTISRDNAKNTVYLQMNSVKPEDNAVYYCNADYLSRRYSFDYWGQGTQVTVSS	high polyreactivity
QVQLVESGGGLVQAGGSLRLSCAASGSIFYRYAMGWYRQAPGKERELVSSISSGVSTNYADYVKGRFTISRDNAKNTVYLQINSLKREDTAVYYWAAYYRGWSSSYWFPAYNYWGQGTQVTVSS	low polyreactivity
QVQLVESGGGLVQAGGSLRLSCAASGSTFGYYAMGWYRQAPGKERELVAAITSGASTNYADSVKGRFTISRDNAKNTVYLQMNSLKPEDTAVYYCAAANLQYGKDVQGDYWGQGTQVTVSS	low polyreactivity
QVQLVESGGGLVQAGGSLRLSCAASGRTFWFNAMGWYRQAPGKERELVASITLSGGSTYYADSVKGRFTISRDNAKITVYLQMNSLKPEDTAVYYCAADQTVHISSYDYWGQGTQVTVSS	low polyreactivity
QVQLVESGGGLVQAGGSLRLSCAASGLTFPTYAMRWYRQAPGKERELVAAISRIGGRTYYADSVKGRFSISRDNAKNTVYLQMNSLKPEDTAVYYCAADGIKGGVEYDYWGQGTQVTVSS	high polyreactivity
QVQLVESGGGLVQEGGSLRLSCAASGRIFSYNTVMGWYIQAPGKERELVAAITFSSASTYYADSVKGRFTISRDNAKNTVYLQMNSLKPEDTAVYYCAAAIRSQSSKYYYWGQGTQVTVSS	low polyreactivity
QLQLEDSGGGLVQAGGSLRISCAASARIVGGNTMGWYRQAPGKERELVAAITYRGGSTYYADSVKGRFTISRDNAKYTVYLQINSLKPVATAVYYCATAGYWGGDYWGQGTQVTVSS	low polyreactivity
QVQLVESGGGLVHAGGSLRLSCAASGSTFGFYARGWYRQAPGKERELVAAITTGGSTNYADSVKGRFTISRVNAKNTVYLQMYSLKPEDSAVYYCHADVYWNPYYDYDYWGQGTLVTVSS	high polyreactivity
QVQLVESGGGLVQAGGSLRLSCAAYGRIFSAYVMGWYRQAPGKERELVAAISSTGSTYYADSAKGRFTISRDNAKNTVYLQMNSLKPEDTAVYYCAKRFFQQGYYYWGQGTQVTVSS	low polyreactivity
KDQLVESGGGLVQAGGSLRLSGAASGRTFASNDMVWYRQAPGKERELVADINNGARTYYADSVKGRFTISRDNAKNTVYLQMNSLKPEDSAVYYCNARPWYWWECRYDYWGQGTQVTVSS	high polyreactivity
QVQLVESGGGLVQAGGSLRLRCAASGFTFPSYPMGWYRQAPGKEREVVAAISQRGGSTYYADSEKGRFTISRDNAKHTVYLQLNSLKPEDTAVYYCAALAPRTGRPTYGYWGQGTQVTVSS	low polyreactivity
QVQLVESGGGLVQAGGSLRLSCAASGFTFFDYVMGWYRQAPGKERELVAAISRNVGSTYYADSVKGRFTISRDNAKTTVYLQMNSLKPEDTAVYYCAAEPPPYEYDYWGQGTQVTVSS	high polyreactivity
QLQLVQSGGGLVQAGGSLRLSCASSGRTFTPNARGWYSQAPGKEREMVAAISWRGGSTYYADAVMGRFTISRVNGKYTVYLEMKSLKPEDTGVYYCKKRSDKSYTRTEYDNWRQGTQVTVSS	high polyreactivity
QVQLVESGGGLVQAGGRHRLSCAPSGSIFRFYVMGWYIQAPGKERELVAAISIGGSTNYADSVKGRFTISRDNAKNTVYLQMNSLKPEDSAVYYCAADGPTYWWTTQWYWGDYWGQGTQVTVSS	low polyreactivity
QVQLVESGGGLVQAGGSLRLSCAASGRTFALYAMGWYRQAPGKERELVASISWRGGSTYYADSVKGRFTISRDNAKNTVYLQMNSLKPEDTAVYYCAADTWSYGPLNYRLEYWGQGTQVTVSS	low polyreactivity
QVQLVESGGGLVQAGGSLRLSCAASGSIFDIYGMGWYRQAPGKERELVASISGGAGSTNYADSVKGRFTISRDTAKNTVYLQMNWLKPEDTAVYYCAAEVYVPDYFQHKFDVEYEYWGQGTQVTVSS	low polyreactivity

Source: the nanobody polyreactivity screen of Harvey et al. (2022)
